# Primed or numbered codes have the meaning given here. Ends that are not written are not given here. Bz′ = not defined here; OBz = not defined here
# T1: [Cys(Bz)^84, Glu(OBz)^85]-CD4(81-92) (UniProt P01730 106-117, reading uncertain)
# T1 construct: range 81-92; Synthetic derivatized peptide
# T1 peptide: TYIC(Bz′)E(OBz)VEDQKEE
# Experiments:
# human angiotensin I = molecular target: T2, human angiotensin I (human, UniProt P01019 25-34); experiment: peptide incubated with mutant on Ni-NTA-agarose beads, washed, acid eluate read by MALDI-TOF
# T2 construct: also called calibration peptide; control peptide
# human angiotensin II = molecular target: T3, human angiotensin II (human, UniProt P01019 25-32); experiment: as above
# T3 construct: also called calibration peptide; control peptide
# [1] = molecular target: T1, [Cys(Bz)^84, Glu(OBz)^85]-CD4(81-92); experiment: mutant immobilized on Ni-NTA-agarose beads, peptide incubated, washed, eluted with 200 mM acetic acid, MALDI-TOF
binder,measurement,setting,value
"6xHis-Ser237Ala-V8Δ48 mutant (enzyme, also called Ser237Ala-V8Δ48 protease; anhydro mutant of the V8 proteinase) MRGSHHHHHHGSVILPNNDRHQITDTTNGHYAPVTYIQVEAPTGTFIASGVVVGKDTLLTNKHVVDATHGDPHALKAFPSAINQDNYPNGGFTAEQITKYSGEGDLAIVKFSPNEQNKHIGEVVKPATMSNNAETQVNQNITVTGYPGDKPVATMWESKGKITYLKGEAMQYDLSTTGGNAGSPVFNEKNEVIGIHWGGVPNEFNGAVFINENVRNFLKQNIEDIHFANDDQKLN",binding result,human angiotensin I,no binding
same,binding result,human angiotensin II,no binding
same,binding result,[1],binds
